Measured values: patent US8304565B2, “PEG-lipid conjugates for liposomes and drug delivery” (priority 2008, dated 2012)
Values belong to the compound of their own block, whether it stands above or below them.

Legend:
human red blood cells = test: Hemolysis of human red blood cells; assay type: cell-based; conditions: equivalent concentrations (20 mmol), absorbance at 413 nm
Procedure: In addition, hemolysis of human red blood cells was performed to provide a more quantitative cytotoxicity evaluation of the PEG-grafted lipids. Cell lysis caused by cytotoxic material leads to release of heme into solution, which was detected by absorbance at 413 nm and compared to control experiments performed in the absence of the synthetic material. Results in Table 6 for equivalent concentrations (20 mmol) of sodium lauryl sulfate (SLS) and mPEG-600 were shown for the comparison.

[1] = In vitro stability of selective linkers at low pH; assay type: physicochemical; conditions: 10 mM phosphate buffer (pH 2.1), approximately 0.05 g/mL, 37°, GPC with RI detector
Procedure: Three DAG-PEGs with equivalent PEG chains and fatty acids, but different linkages (shown in Table 5) were tested for stability at low pH, in the range of 1.4 to 2.1. Table 5 includes alternate names for each of the three DAG-PEGs tested.
The selected DAG-PEGs were mixed with 10 mM phosphate buffer (pH 2.1) at final concentrations approximately 0.05 g/mL and incubated at 37° . The sample solutions were tested on a GPC column with RI detector and the breakdown fragments were further confirmed by LC-MS/MS.
In FIG. 1, (1) is PEG (n=12)-3-acetyl-1,2-rac-dioleoylglucerol, (2) is PEG (n=12)-3-acetamido-dioleoylglycerol and (3) is PEG (n=12)-3-N-(mercaptomethyl)-Propionamido-1,2-rac-dioleoylglucerol.

[2] = Spontaneous liposome formation of DAG-PEG lipids; assay type: physicochemical
Source text: Herein, we describe biologically degradable linear PEG analogs carrying diacylglycerol lipid groups. These new molecules belong to a class referred to as diacylglycerol-polyethyleneglycols (DAG-PEGs). DAG-PEGs having certain properties form liposomes spontaneously upon mixing with an aqueous solution. Briefly, DAG-PEGs or lipid mixtures including DAG-PEGs must have packing parameters that allow liposome formation. Generally, Pa is preferably between about 0.84 and 0.88, and Pv is preferably between about 0.88 and 0.93. Also, the DAG-PEGs or lipid mixtures including DAG-PEGs must have a melting point below the temperature of liposome formation. If a DAG-PEG meets these conditions, it will form liposomes spontaneously (without external energy inputs). Spontaneous liposomes and DAG-PEGs are described in U.S. Pat. No. […], which is hereby incorporated by reference. The particular DAG-PEGs described in U.S. Pat. No. […] utilized a single oxy (alternatively called oxyl) linkage between the PEG and the glycerol backbone.
A number of new DAG-PEGs were synthesized and tested. Most of the combinations of PEG chains and fatty acids were chosen because it was known or expected that such DAG-PEGs with oxy linkages would have packing parameters and melting points favorable for the formation of liposomes.

[3] = mouse, in vivo, iv, 10 mg/kg
Procedure: Groups of three male mice (B6D2F1) were used for the studies. Pharmacokinetics (PK) were performed on heparinized mouse plasma samples obtained typically at 0 hr, 0.08 hr, 0.25 hr, 0.5 hr, 1 hr, 2 hr, 4 hr, 8 hr, 16 hr and 24 hr after the bolus IV injection or oral feeding for posaconazole and at 0 hr, 0.08 hr, 0.25 hr, 0.5 hr, 1 hr, 2 hr, 4 hr, 8 hr, 16 hr and 24 hr for itraconazole. Samples were analyzed using a HPLC-MS method. To determine the level of each drug, the drug was first isolated from plasma with a sample pre-treatment. Acetonitrile were used to remove proteins in samples. An isocratic HPLC-MS method was then used to separate the drugs from any potential interference. Drug levels were measured by MS detection with a multiple reaction monitoring (MRM) mode. PK data was analyzed using the WinNonlin program (ver. 5.2, Pharsight) compartmental models of analysis.
The drug was administered intravenously and the dosing strength was 10 mg/kg.

Compound: CCCCCCCCCCCCOS(=O)(=O)[O-].[Na+] [SLS, sodium lauryl sulfate]
- % Hemolysis (human red blood cells): 80%

Compound: PEG (n=12)-3-N-(mercaptomethyl)-Propionamido-1,2-rac dioleoylglycerol [PEG-12-S2-GDO]
- stability at low pH [1]: degraded quickly

Compound: PEG (n=12)-3-acetyl-1,2-rac-dioleoylglycerol [PEG-12-Ac2-GDO]
- Spontaneous Liposome at 20° C. ([2]; 20° C.): Yes
- Spontaneous Liposome at 37° C. ([2]; 37° C.): Yes
- stability at low pH [1]: stable

Compound: PEG (n=12)-3-acetamido-dioleoylglycerol [PEG-12-N3-GDO]
- stability at low pH [1]: relatively stable

- AUC [3]: 164.1 µg·h/mL
Compound: POPC
